Measurements as given in patent US10184140B2, “Materials and methods for production of bi-functional fatty acids in recombinant bacteria” (IOWA STATE UNIVERSITY RESEARCH FOUNDATION, INC., priority 2013, dated 2019).
Substitutions are numbered along the chain they refer to. Names and notes keep the numbering of the source.

Experiments:
[1] = Saturation Transfer Difference NMR of KASIII enzymes with acetyl-CoA or isobutyryl-CoA; format: binding
Description: NMR experiments were performed at 25° C. on a Bruker AV700 MHz spectrometer equipped with a 5 mm HCN cryoprobe. Samples for STD NMR experiments were prepared in 0.1 M sodium phosphate buffer (pH 7.4) with 5% D2O. The protein/ligand ratio was set as 1:100 with KASIII concentration in the 20-25 μM range. Saturation was applied as CW pulse with a power of 58-60 Hz, with on-resonance pulses at 0.62 ppm and 6.86 ppm for upfield and downfield, respectively. The off-resonance pulse was applied at 45 ppm. 3-9-19 WATERGATE suppression was used with a T1-ρ filter. Saturation time of five seconds with an additional delay of 5.1 seconds was used. A set of three replicates was acquired, with 32 scans in each replicate, for each STD NMR experiment of KASIII wild-type or mutated enzyme with a ligand, which was either acetyl-CoA or isobutyryl-CoA (Sigma-Aldrich, St. Louis, Mo.). The reference and the saturated spectra were obtained in an interleaved manner. Resonance assignments of 1H NMR spectra of free ligands were completed using ID 1H and COSY.
Control experiments were carried out by applying on- and off-resonance saturation pulses either to the ligand in the absence of protein, or to the ligand in the presence of denatured protein.
Relative STD effects (ASTD) were calculated according to the equation ASTD=(Io−Isat)/Io where Isat is the signal intensity of the saturated spectrum and Io is the signal intensity of the reference spectrum (Mayer et al., J. Am. Chem. Soc. 123: 6108-6117 (2001)). STD amplification factor was calculated according to the equation: STDaf=ASTD×molar ligand excess.
STD NMR experiments elucidated interactions of these purified enzymes (both wild-type and mutated) with straight-chain substrate (acetyl-CoA) and branched-chain substrate (isobutyryl-CoA) and enabled mapping of binding epitopes on the two substrates. Relative saturation transfer to each of the binding epitopes was measured and converted to the STD amplification factor (STDaf), which is an indicator of ligand binding (Mayer et al., J. Am. Chem. Soc. 123: 6108-6117 (2001)). Ligand epitopes with high STDaf values are assumed to receive higher saturation transfer from the enzyme, and thus are in close contact with the enzyme.

[2] = Spectrophotometric coupled assay (FabD/FabG, NADPH at 340 nm) of KASIII specific activity with acyl-CoA substrates; details: for Specific Activity with Acetyl-CoA: substrate acetyl-CoA; for Specific Activity with Acetyl-CoA / Specific Activity with Isobutyryl-CoA: n.d. = not detectable; for Specific Activity with Isobutyryl-CoA: substrate isobutyryl-CoA
Description: The method comprises (i) incubating holo-ACP, malonyl-CoA, acyl-CoA, NADPH, and malonyl-CoA:ACP transacylase (FabD), (ii) adding KASIII and 3-ketoacyl-ACP reductase (FabG), and (iii) measuring the change in absorbance at 340 nm when NADPH is converted to NADP+ during reduction of 3-ketoacyl-ACP to 3-hydroxyl-acyl ACP by FabG.
Activity of A. acidocaldarius KASIII with different acyl-CoA substrates (acetyl-CoA, isobutyryl-CoA and 3-hydroxybutyryl-CoA (Sigma-Aldrich)) was ascertained by a coupled assay. The assay was performed in 96-well plate format with three replicates for each reaction condition. In a total volume of 100 μl for each reaction the reaction mix containing 100 μM holo-ACP, 200 μM malonyl-CoA, 10 mM DTT, 50 μM acyl-CoA substrate (either acetyl-CoA, isobutyryl-CoA or 3-hydroxy-butyryl-CoA) and 200 μM NADPH in 0.1 M sodium phosphate buffer (pH 7.2) was pre-incubated with 60 μg of FabD for two minutes. The reaction was started by the addition of 30 μg of FabG and varying concentrations of A. acidocaldarius (0.5-15 μg). Change in absorbance of NADPH that was being converted to NADP^+ during reduction of 3-ketoacyl-ACP 3-hydroxy-acyl-ACP by FabG was recorded at 340 nm using a Biotek multi-plate reader.
Spectrophotometric assay was used to assess the activity of A. acidocaldarius KASIII with various acyl-CoA substrates. The assay coupled the appearance of the KASIII-product (3-ketoacyl-ACP) to the oxidation of NADPH, catalyzed by 3-ketoacyl-ACP reductase (FabG).
KASIII enzymatic activity was ascertained via spectrophotometric assay, which coupled the appearance of 3-ketoacyl-ACP to the oxidation of NADPH, using the E. coli FabG protein to reduce 3-ketoacyl-ACP to 3-hydroxyacyl-ACP. The assay was performed in a 96-well plate-format with three technical replicates for each reaction condition. In a total volume of 100 μl for each reaction, the reaction mix contained 100 μM holo-ACP, 200 μM malonyl-CoA, 10 mM DTT, 50 μM acyl-CoA substrate, and 200 μM NADPH in 0.1 M sodium phosphate buffer (pH 7.2). This mixture was pre-incubated with 60 μg of FabD for two minutes to initiate synthesis of malonyl-ACP from malonyl-CoA and holo-ACP. The reaction was then started by the addition of 30 μg of FabG and varying concentrations of KASIII enzyme (0.5-15 μg). As KASIII catalysed the condensation of acyl-CoA with malonyl-ACP to form 3-ketoacyl-ACP, FabG reduced the 3-ketoacyl-ACP intermediate to 3-hydroxy-acyl ACP in the presence of NADPH.

[3] = system: B. subtilis FabH deletion mutant; experiment: Fatty acid production by recombinant KASIII in B. subtilis FabH deletion mutant; format: cell-based; details: B. subtilis FabH deletion mutant rescued by the recombinant KASIII

B1: B. subtilis KASIIIa Wild-type: B. subtilis KASIIIA, bfabHA (yjaX) locus, GenBank CAB12974.1, amino acid sequence SEQ ID NO:64 (protein)
chain: MKAGILGVGRYIPEKVLTNHDLEKMVETSDEWIRTRTGIEERRIAADDVFSSHMAVAAAKNALEQAEVAAEDLDMILVATVTPDQSFPTVSCMIQEQLGAKKACAMDISAACAGFMYGVVTGKQFIESGTYKHVLVVGVEKLSSITDWEDRNTAVLFGDGAGAAVVGPVSDDRGILSFELGADGTGGQHLYLNEKRHTIMNGREVFKFAVRQMGESCVNVIEKAGLSKEDVDFLIPHQANIRIMEAARERLELPVEKMSKTVHKYGNTSAASIPISLVEELEAGKIKDGDVVVMVGFGGGLTWGAIAIRWGR
modifications: B. subtilis
- Higher saturation of HAP proton of isobutyryl-CoA as compared to the acetyl-CoA HAP proton ([1]; isobutyryl-CoA vs acetyl-CoA): ~28%
- STD amplification factor (STDaf), HT proton of acetyl-CoA ([1]; protein/ligand 1:100, 25° C.): 1.5
- STD amplification factor (STDaf), HT proton of isobutyryl-CoA ([1]; protein/ligand 1:100, 25° C.): 1.5
- Catalytic activity with the isobutyryl-CoA substrate retained ([2]; conserved Phe mutated to Ala, compared with wild-type): about 25%
- Specific Activity with Acetyl-CoA [2]: 64 ± 32 nmol/min/mg
- Specific Activity with Isobutyryl-CoA [2]: 205 ± 139 nmol/min/mg

B2: B. subtilis KASIIIa F208V_M213L: B. subtilis KASIIIA double mutant F208V_M213L, amino acid sequence SEQ ID NO:124 (protein)
chain: B1 chain with F208V, M213L
modifications: B. subtilis KASIIIA double mutant; (208)..(208) phenylalanine at amino acid position 208 replaced with valine; (213)..(213) methionine at amino acid position 213 replaced with leucine
- Specific Activity with Isobutyryl-CoA [2]: 17 ± 7 nmol/min/mg

B3: B. subtilis KASIIIa F208V: B. subtilis KASIIIA single mutant F208V, amino acid sequence SEQ ID NO:120 (protein)
chain: B1 chain with F208V
modifications: B. subtilis KASIIIA mutant; (208)..(208) phenylalanine at amino acid position 208 replaced with valine
- Decrease in saturation transfer/STDaf for isobutyryl-CoA HT and HB protons in comparison to the wild-type ([1]; mutant vs wild-type): ~40%

B4: B. subtilis KASIIIa F297A: B. subtilis KASIII containing an F297A mutation, amino acid sequence SEQ ID NO:126 (protein)
chain: B1 chain with F208V, M213L, F297A
modifications: B. subtilis KASIIIA mutant; (297)..(297) phenylalanine at amino acid position 297 replaced with alanine
- Specific Activity with Isobutyryl-CoA [2]: 56 ± 28 nmol/min/mg

B5: B. subtilis KASIIIa M213L: B. subtilis KASIIIA single mutant M213L, amino acid sequence SEQ ID NO:122 (protein)
chain: B1 chain with M213L
modifications: B. subtilis KASIIIA mutant; (213)..(213) methionine at amino acid position 213 replaced with leucine
- Decrease in STDaf for acetyl-CoA HT proton ([1]; mutant vs wild-type): 40%
- Decrease in saturation transfer/STDaf for isobutyryl-CoA HT and HB protons in comparison to the wild-type ([1]; mutant vs wild-type): 60-70%
- Specific Activity with Isobutyryl-CoA [2]: 156 ± 47 nmol/min/mg

B6: KASIII from Bacteroides vulgatus: KASIII from Bacteroides vulgatus, GenBank ABR38167.1 (protein, UniProt A6KXK3 1-334, looked up)
Beta-ketoacyl-[acyl-carrier-pr …: MEKINAVITGVGGYVPDYVLTNEEISRMVDTNDEWIMTRIGVKERRILNEEGLGTSYMARKAAKQLMQKTASNPDDIDAVIVATTTPDYHFPSTASILCDKLGLKNAFAFDLQAACCGFLYLMETAASLIASGRHKKIIIVGADKMSSMVNYQDRATCPIFGDGAAACMVEATTEDYGIMDSILRTDGKGLPFLHMKAGGSVCPPSYFTVDHKMHYLYQEGRTVFKYAVSNMSDITATIAEKNGLNKDNIDWVIPHQANLRIIDAVASRLEVPLEKVMINIQRYGNTSGATLPLCLWDYEKQLKKGDNLIFTAFGAGFTYGAVYVKWGYDGSKR
- Fatty acid content: Anteiso-fatty acids [3]: 70.43 mole %
- Fatty acid content: Even-number iso-fatty acids [3]: 1.73 mole %
- Fatty acid content: Even-number normal fatty acids [3]: 9.51 mole %
- Fatty acid content: Odd-number iso-fatty acids [3]: 18.24 mole %
- Fatty acid content: Odd-number normal fatty acids [3]: 0.09 mole %
- Substrate preference in the spectrophotometric assay ([2]; acetyl-CoA, isobutyryl-CoA and 3-hydroxybutyryl-CoA tested): higher preference for isobutyryl-CoA and 3-hydroxybutyryl-CoA as compared to acetyl-CoA

B7: B. subtilis KASIIIb W221V: B. subtilis KASIIIB single mutant W221V, amino acid sequence SEQ ID NO:128 (protein)
chain: MSKAKITAIGTYAPSRRLTNADLEKIVDTSDEWIVQRTGMRERRIADEHQFTSDLCIEAVKNLKSRYKGTLDDVDMILVATTTSDYAFPSTACRVQEYFGWESTGALDINATCAGLTYGLHLANGLITSGLHQKILVIAGETLSKVTDYTDRTTCVLFGDAAGALLVERDEETPGFLASVQGTSGNGGDILYRAGLRNEINGVQLVGSGKMVQNGREVYKVAARTVPGEFERLLHKAGLSSDDLDWFVPHSANLRMIESICEKTPFPIEKTLTSVEHYGNTSSVSIVLALDLAVKAGKLKKDQIVLLFGFGGGLTYTGLLIKWGM
modifications: B. subtilis KASIIIB mutant; (221)..(221) tryptophan at amino acid position 221 replaced with valine
- Specific Activity with Isobutyryl-CoA [2]: completely eliminated activity

B8: B. subtilis KASIIIb V226L: B. subtilis KASIIIB single mutant V226L, amino acid sequence SEQ ID NO:130 (protein)
chain: B7 chain with V221W, V226L
modifications: B. subtilis KASIIIB mutant; (226)..(226) valine at amino acid position 226 replaced with leucine
- Loss of activity with isobutyryl-CoA ([2]; mutant compared with wild-type enzyme): approximately 50%
- Specific Activity with Isobutyryl-CoA [2]: 134 ± 6 nmol/min/mg

B9: E. coli KASIII F304A (protein)
chain: MYTKIIGTGSYLPEQVRTNADLEKMVDTSDEWIVTRTGIRERHIAAPNETVSTMGFEAATRAIEMAGIEKDQIGLIVVATTSATHAFPSAACQIQSMLGIKGCPAFDVAAACAGFTYALSVADQYVKSGAVKYALVVGSDVLARTCDPTDRGTIIIFGDGAGAAVLAASEEPGIISTHLHADGSYGELLTLPNADRVNPENSIHLTMAGNEVFKFAVTEMAHIVDETLAANNLDRSQLDWLVPHQANLRIISATAKKLGMSMDNVVVTLDRHGNTSAASVPCALDEAVRDGRIKPGQLVLLEAAGGGFTWGSALVRF
modifications: E. coli mutant; (304)..(304) phenylalanine at amino acid position 304 replaced with alanine
- Lower saturation transfer to the HT protons of acetyl-CoA and isobutyryl-CoA compared to the wild-type ([1]; mutant vs wild-type): approximately 60%

B10: E. coli KASIII V215F_L220M: E. coli KASIII double mutant V215F_L220M, amino acid sequence SEQ ID NO:116 (protein)
chain: B9 chain with A304F
modifications: E. coli mutant; (215)..(215) valine at amino acid position 215 replaced with phenylalanine; (220)..(220) leucine at amino acid position 220 replaced with methionine
- Specific Activity with Acetyl-CoA [2]: 221 ± 104 nmol/min/mg
- Specific Activity with Isobutyryl-CoA [2]: 18 ± 5 nmol/min/mg
